The results in this text go back to patent publication US6875851B1 (priority 1999, dated 2005).

Data set [1] deals with PTP-A. The format is biochemical, P. gingivalis.
Data set [2] can be described thus: pH optimum and stability of PTP-A by amidolytic activity assay. The format is physicochemical, P. gingivalis. Particulars: 0.2 M HEPES. As for the experimental part:
Enzyme Activity Assays—Routinely, the tripeptidyl peptidase amidolytic activity was measured with H-Ala-Phe-Pro-pNA (1 mM) in 0.2 M HEPES (N-2-hydroxyethylpeperazine,N′-2-ethansulfonic acid), pH 7.5 at 37° C. The concentration of enzyme was 0.1 nM to 1 nM. The assay was performed in a total volume of 0.2 ml on microplates, and the initial turnover rate was recorded at 405 nm using a microplate reader (Spectramax Molecular Devices, Sunnyvale, Calif.). In inhibition studies, the enzyme was first preincubated with inhibitor for 15 min at 37° C., substrate added, and residual activity recorded after 5 minutes to 30 minutes. H-Gly-Pro-pNA, Z-Ala-Pro-pNA, Z-Gly-Pro-pNA and H-Pro-pNA (1 mM final concentration) were assayed in the same manner.
PTP-A activity was not affected by class specific synthetic inhibitors of cysteine or metalloproteinases (Table 2).

For data set [3], the system named is PTP-A. The format is biochemical, P. gingivalis. The source holds these as a separate data set.

B1: human cystatin C: protein substrate, provided by Dr. Magnus Abrahamson (protein)
chain: SSPGKPPRLVGGPMDASVEEEGVRRALDFAVGEYNKASNDMYHSRALQVVRARKQIVAGVNYFLDVELGRTTCTKTQPNLDNCPFHDQPHLKRKAFCSFQIYAVPWQGTMTLSKSTCQDA
On to B1, for which the “Cleavage of protein by PTP-A (in words)” value in the data set on PTP-A [1] is listed as “able to cleave a tripeptide”.

B2: PTP-A: prolyl-tripeptidyl peptidase A (SEQ ID NO:30) from P. gingivalis (protein, listed as Porphyromonas gingivalis)
chain: MKKTIFQQLFLSVCALTVALPCSAQSPETSGKEFTLEQLMPGGKEFYNFYPEYVVGLQWMGDNYVFIEGDDLVFNKANGKSAQTTRFSAADLNALMPEGCKFQTTDAFPSFRTLDAGRGLVVLFTQGGLVGFDMLARKVTYLFDTNEETASLDFSPVGDRVAYVRNHNLYIARGGKLGEGMSRAIAVTIDGTETLVYGQAVHQREFGIEKGTFWSPKGSCLAFYRMDQSMVKPTPIVDYHPLEAESKPLYYPMAGTPSHHVTVGIYHLATGKTVYLQTGEPKEKFLTNLSWSPDENILYVAEVNRAQNECKVNAYDAETGRFVRTLFVETDKHYVEPLHPLTFLPGSNNQFIWQSRRDGWNHLYLYDTTGRLIRQVTKGEWEVTNFAGFDPKGTRLYFESTEASPLERHFYCIDIKGGKTKDLTPESGMHRTQLSPDGSAIIDIFQSPTVPRKVTVTNIGKGSHTLLEAKNPDTGYAMPEIRTGTIMAADGQTPLYYKLTMPLHFDPAKKYPVIVYVYGGPHAQLVTKTWRSSVGGWDIYMAQKGYAVFTVDSRGSANRGAAFEQVIHRRLGQTEMADQMCGVDFLKSQSWVDADRIGVHGWSYGGFMTTNLMLTHGDVFKVGVAGGPVIDWNRYEIMYGERYFDAPQENPEGYDAANLLKRAGDLKGRLMLIHGAIDPVVVWQHSLLFLDACVKARTYPDYYVYPSHEHNVMGPDRVHLYETITRYFTDHL
On to B2, for which the “Stability (time stable)” value is “at least 12 hours” in data set [2] (pH 7.6, 25° C.) and “at least 12 hours” in data set [2] (pH 7.6, 37° C.).

B3: α1-antichymotrypsin: Human plasma inhibitor (protein)
chain: HPNSPLDEENLTQENQDRGTHVDLGLASANVDFAFSLYKQLVLKAPDKNVIFSPLSISTALAFLSLGAHNTTLTEILKGLKFNLTETSEAEIHQSFQHLLRTLNQSSDELQLSMGNAMFVKEQLSLLDRFTEDAKRLYGSEAFATDFQDSAAAKKLINDYVKNGTRGKITDLIKDLDSQTMMVLVNYIFFKAKWEMPFDPQDTHQSRFYLSKKKWVMVPMMSLHHLTIPYFRDEELSCTVVELKYTGNASALFILPDQDKMEEVEAMLLPETLKRWRDSLEFREIGELYLPKFSISRDYNLNDILLQLGIEEAFTSKADLSGITGARNLAVSQVVHKAVLDVFEEGTEASAATAVKITLLSALVETRTIVRFNRPFLMIIVPTDTQNIFFMSKVTNPKQA
Regarding B3, in the data set with PTP-A [3], the “Effect on PTP-A amidolytic activity (in words)” value is “did not affect the enzyme activity”. The “Cleavage of protein by PTP-A (in words)” value in the data set with PTP-A [1] is “nor were they cleaved by PTP-A”.

B4: α2-macroglobulin: Human plasma inhibitor (protein)
chain: SVSGKPQYMVLVPSLLHTETTEKGCVLLSYLNETVTVSASLESVRGNRSLFTDLEAENDVLHCVAFAVPKSSSNEEVMFLTVQVKGPTQEFKKRTTVMVKNEDSLVFVQTDKSIYKPGQTVKFRVVSMDENFHPLNELIPLVYIQDPKGNRIAQWQSFQLEGGLKQFSFPLSSEPFQGSYKVVVQKKSGGRTEHPFTVEEFVLPKFEVQVTVPKIITILEEEMNVSVCGLYTYGKPVPGHVTVSICRKYSDASDCHGEDSQAFCEKFSGQLNSHGCFYQQVKTKVFQLKRKEYEMKLHTEAQIQEEGTVVELTGRQSSEITRTITKLSFVKVDSHFRQGIPFFGQVRLVDGKGVPIPNKVIFIRGNEANYYSNATTDEHGLVQFSINTTNVMGTSLTVRVNYKDRSPCYGYQWVSEEHEEAHHTAYLVFSPSKSFVHLEPMSHELPCGHTQTVQAHYILNGGTLLGLKKLSFYYLIMAKGGIVRTGTHGLLVKQEDMKGHFSISIPVKSDIAPVARLLIYAVLPTGDVIGDSAKYDVENCLANKVDLSFSPSQSLPASHAHLRVTAAPQSVCALRAVDQSVLLMKPDAELSASSVYNLLPEKDLTGFPGPLNDQDNEDCINRHNVYINGITYTPVSSTNEKDMYSFLEDMGLKAFTNSKIRKPKMCPQLQQYEMHGPEGLRVGFYESDVMGRGHARLVHVEEPHTETVRKYFPETWIWDLVVVNSAGVAEVGVTVPDTITEWKAGAFCLSEDAGLGISSTASLRAFQPFFVELTMPYSVIRGEAFTLKATVLNYLPKCIRVSVQLEASPAFLAVPVEKEQAPHCICANGRQTVSWAVTPKSLGNVNFTVSAEALESQELCGTEVPSVPEHGRKDTVIKPLLVEPEGLEKETTFNSLLCPSGGEVSEELSLKLPPNVVEESARASVSVLGDILGSAMQNTQNLLQMPYGCGEQNMVLFAPNIYVLDYLNETQQLTPEIKSKAIGYLNTGYQRQLNYKHYDGSYSTFGERYGRNQGNTWLTAFVLKTFAQARAYIFIDEAHITQALIWLSQRQKDNGCFRSSGSLLNNAIKGGVEDEVTLSAYITIALLEIPLTVTHPVVRNALFCLESAWKTAQEGDHGSHVYTKALLAYAFALAGNQDKRKEVLKSLNEEAVKKDNSVHWERPQKPKAPVGHFYEPQAPSAEVEMTSYVLLAYLTAQPAPTSEDLTSATNIVKWITKQQNAQGGFSSTQDTVVALHALSKYGAATFTRTGKAAQVTIQSSGTFSSKFQVDNNNRLLLQQVSLPELPGEYSMKVTGEGCVYLQTSLKYNILPEKEEFPFALGVQTLPQTCDEPKAHTSFQISLSVSYTGSRSASNMAIVDVKMVSGFIPLKPTVKMLERSNHVSRTEVSSNHVLIYLDKVSNQTLSLFFTVLQDVPVRDLKPAIVKVYDYYETDEFAIAEYNAPCSKDLGNA
As to B4, in the data set on PTP-A [3], the “Effect on PTP-A amidolytic activity (in words)” value is recorded as “did not affect the enzyme activity”. For the same molecule, the “Cleavage of protein by PTP-A (in words)” value with PTP-A [1] is “nor were they cleaved by PTP-A”.
